Sequences and labels used below:
B1: monoclonal murine antibody AGX-A03 (antibody, V domains shown)
VH: QIQLVQSGPELKKPGETVKISCKASGYSFRDYGMNWVKQAPGRTFKWMGWINTYTGAPVYAADFKGRFAFSLDTSASAAFLQINNLKNEDTATYFCARWVSYGNNRNWFFDFWGAGTTVTVSS
VL: DVLMTQTPLSLPVRLGDQASISCRSSQTLVHSNGNTYLEWYLQKPGQSPKLLIYKVSNRLSGVPDRFSGSGSGTDFTLKISRVETEDLGVYYCFQGSHGPWTFGGGTKLEIK
notes: Murine monoclonal antibody
B2: monoclonal murine antibody AGX-A05 (antibody, V domains shown)
VH: EVQVQQSGPELVKPGASVKMSCKASGYTFTSYVMHWVKQKPGQGLEWIGYINPNNDNINYNEKFKGKASLTSDKSSNTVYMELSSLTSEDSAVYYCAGYGNSGANWGQGTLVTVSA
VL: DIQMTQSPASLSASVGETVTITCRTSKNIFNFLAWYHQKQGRSPRLLVSHTKTLAAGVPSRFSGSGSGTQFSLKINSLQPEDFGIYYCQHHYGTPWTFGGGTKLEIK
notes: Murine monoclonal antibody
B3: monoclonal murine antibody AGX-A07 (antibody, V domains shown)
VH: QIQLVQSGPELKKPGETVKISCKASGYTFTNYGVKWVKQAPGKDLKWMGWINTYTGNPIYAADFKGRFAFSLETSASTAFLQINNLKNEDTATYFCVRFQYGDYRYFDVWGAGTTVTVSS
VL: QIILSQSPAILSASPGEKVTMTCRANSGISFINWYQQKPGSSPKPWIYGTANLASGVPARFGGSGSGTSYSLTISRVEAEDAATYYCQQWSSNPLTFGAGTKLELR
notes: The humanized A07 variants (A07-YTEC etc.) used in the ADC killing assays are different molecules and are not entered
B4: monoclonal murine antibody AGX-A04 (antibody, V domains shown)
VH: EVQLQQSGPELVKPGASVKISCKTSGYTFTDYTMHWVRQSHGKSLEWIGSFNPNNGGLTNYNQKFKGKATLTVDKSSSTVYMDLRSLTSEDSAVYYCTRIRATGFDSWGQGTTLTVSS
VL: DIVMSQSPSSLAVSAGEKVTMSCKSSQSLLNSRTRKNYLAWYQQKPGQSPKLLIYWASTRESGVPDRFTGSGSGTDFTLTISNVQAEDLTVYYCKQSYNPPWTFGGGTKLEIK
notes: Murine monoclonal antibody
B5: monoclonal murine antibody AGX-A09 (antibody, V domains shown)
VH: EVQLQQSGPELVKPGASVKMSCKASGYTFSSYVMHWVKQKPGQGLEWIGYINPYSDVTNYNEKFKGKATLTSDRSSNTAYMELSSLTSEDSAVYYCARNYFDWGRGTLVTVSA
VL: DIQMTQSPASLSASVGETVTITCRASKNVYSYLAWFQQKQGKSPQLLVYNAKTLAEGVPSRFSGGGSGTQFSLKINSLQPADFGSYYCQHHYNIPFTFGSGTKLEIK
notes: Murine monoclonal antibody
B6: monoclonal murine antibody AGX-A08 (antibody, V domains shown)
VH: EVQLQQSGPELVKPGASVKLSCKASGYTVTSYVMHWVKQKPGQGLEWIGYINPYSDVTNCNEKFKGKATLTSDKTSSTAYMELSSLTSEDSAVYYCSSYGGGFAYWGQGTLVTVSA
VL: DIQMTQSPASLSASVGEPVTITCRASKNIYTYLAWYHQKQGKSPQFLVYNARTLAGGVPSRLSGSGSVTQFSLNINTLHREDLGTYFCQHHYDTPYTFGGGTNLEIK
notes: Murine monoclonal antibody

System in the first series: not given
Assay: not given
Conditions: treatment with CA4P; cited from earlier work.
Take `COc1ccc(/C=C\c2cc(OC)c(OC)c(OC)c2)cc1OP(=O)(O)O` [CA4P, Combretastatin]: the “Patients who experienced heart attacks while being treated” value is “seven”.

For another series, the target named is T1, Transmembrane-4 L six family member-1 (TM4SF1) (human, UniProt P30408 1-202, limits assumed).
T1 construct: also called hTM4SF1; human TM4SF1
T1 sequence: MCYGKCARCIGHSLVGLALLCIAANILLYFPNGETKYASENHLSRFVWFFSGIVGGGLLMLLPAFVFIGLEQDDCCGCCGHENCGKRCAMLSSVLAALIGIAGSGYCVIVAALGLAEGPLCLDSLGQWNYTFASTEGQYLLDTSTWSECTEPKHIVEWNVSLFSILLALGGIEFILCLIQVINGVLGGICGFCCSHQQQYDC
The series can be described thus: antibody screen (method not described in this filing).
Conditions: not given
As to B1, the binding result is reported as “binds”.

As for B2, the binding result is listed as “binds”.

Consider B3, for which the binding result is reported as “binds”.

Regarding B4, the binding result was “binds”.

For B5, the binding result is recorded as “binds”.

B6: the binding result is on record as “binds”.

Source of the values: US20230372518A1, “ANTIMITOTIC TETRAPEPTIDE-ANTIBODY CONJUGATES AND METHODS OF USING SAME” (Angiex, Inc., priority 2020, published 2023).
